The values that follow come from patent EP2469278A1, “Reagentless fluorescent biosensors from nanofitins, rational design methods to create reagentless fluorescent biosensors and methods of their use” (Institut Pasteur, priority 2010, dated 2012).

Test [1] concerns the target T1, hen egg-white lysozyme (hen, UniProt P00698 19-147).
T1 construct: also called HEL
Kind of test: fluorescence titration in solution, 0.3 µM conjugate, buffer C, 25 °C.

Test [2] concerns the target T1, hen egg-white lysozyme. Kind of test: from Kd in solution: fluorescence titration of conjugate against competition Biacore of H4S(wt). For orientation: Surface plasmon resonance follows binding to a sensor surface in real time, without labels.
Test [3] concerns the target T2, hen egg-white lysozyme (HEL) (Gallus gallus, UniProt P00698).
T2 construct: hen egg-white lysozyme (HEL); purchased Sigma
Kind of test: Titration of H4S conjugates with HEL, monitored by fluorescence. The class given is binding. The note with it: for ΔΔG: decrease of free energy of interaction with HEL on fluorophore conjugation, from Kd of conjugate versus H4S(wt); for sr: relative sensitivity of the conjugate at a fixed concentration of 0.3 µM (Equation 8), HEL; for ΔF∞/F0: maximal variation of F at λmax on HEL binding. As for the experimental part:
The binding and fluorescence experiments were performed at equilibrium as if the preparations of conjugates were homogeneous, i. e. as if yc = 1. The binding reactions were conducted by incubating 0.3 µM of conjugate with variable concentrations of the HEL or BSA antigens in a volume of 1 mL, for 30 min in the dark with gentle shaking. The reactions were carried out in Buffer C or in a mixture v:(1-v) of calf serum and Buffer C as indicated in example 2.
The conjugate (or biosensor) B and antigen A form a 1:1 complex B:A according to the reaction: B + A↔B:A [formula] At equilibrium, the concentration [B:A] of the complex is given by the equation: [B:A] = 0.5{[B]0+[A]0+Kd-(((([B]0+[A]0+Kd))^2-4[B]0[A]0))^(1/2)} [formula] where Kd is the dissociation constant, and [A]0 and [B]0 are the total concentrations of A and B, respectively (Renard et al., 2003).
The fluorescence of the IANBD conjugates was excited at 485 nm (5 nm slit width) and its intensity measured between 520 and 550 nm (20 nm slit width) with a FP-6300 spectrofluorometer (Jasco). The signal of HEL alone or BSA alone was measured in an independent experiment and subtracted from the global signal of the binding mixture to give the specific fluorescence intensity F of each conjugate. The intensity F at a given value of [A]0 satisfies the following equation: (F-F0)/F0 = ΔF/F0 = (ΔF∞/F0)([B:A]/[B]0) [formula] where F0 and F∞ are the values of F at zero and saturating concentrations of A (Renard et al., 2003). The values of ΔF∞/F0, Kd, and [B]0 could be determined by fitting Equation 5, in which [B:A] is given by Equation 4, to the experimental values of ΔF/F0, measured in a titration experiment. The fittings were performed with the Kaleidagraph software (Synergy Software).
The sensitivity s and relative sensitivity sr of a conjugate can be defined by the following equations for the low values of [A]0, i. e. in the initial part of the titration curve: ΔF = s[A]0 [formula] ΔF/F0 = sr [A]0 /[B]0 [formula] s and sr can be expressed as functions of characteristic parameters of the conjugate: sr = (ΔF∞/F0)([B]0/(Kd+[B]0)) [formula] s = fb sr [formula] where fb = F0/[B]0 is the molar fluorescence of the free conjugate (Renard and Bedouelle, 2004). Equation 8 implies that sr is maximal when the biosensor B is present at a concentration [B]0 >> Kd, as every newly titrated molecule A then forms a complex. Equation 6 implies that the lower limit of detection δ[A]0 of the conjugate is linked to the lower limit of measurement of the spectrofluorometer δF by the following equations: δ[A]0 = s^-1 δF = sr^-1 [B]0 (δF/F0) [formula]

Setting [4] is: 0.3 µM conjugate, buffer C, 25 °C, value ± SE of fitting.

B1: H4S conjugate, IANBD fluorophore coupled at position Asn9 (designed binder)
chain: MRGSHHHHHHGSVKVKFFWCGEEKEVDTSKIVWVKRAGKSVLFIYDDNGKNGYGDVTEKDAPKELLDMLARAEREKKLN
modifications: Cys at position 9 (H4S numbering) coupled to IANBD ester (ANBD)
B1: in the test with hen egg-white lysozyme [1], the Kd was found to be 7 nM and the “ΔF∞/F0 (maximal relative variation of fluorescence on HEL binding)” value was determined as 0.52. In addition, in the test with hen egg-white lysozyme [2], the “ΔΔG (conjugate against H4S(wt))” value was no more than 0.5 kcal/mol.

B2: Leu31: H4S conjugate: residue Leu31 changed into cysteine and coupled with the IANBD fluorophore (conjugate)
chain: MRGSHHHHHHGSVKVKFFWNGEEKEVDTSKIVWVKRAGKSVCFIYDDNGKNGYGDVTEKDAPKELLDMLARAEREKKLN
Take B2: in test [3], the ΔΔG was no less than 1.5 kcal/mol. In addition, in test [3] (buffer C), the sr is given as 0.17.

B3: Phe7: H4S conjugate: residue Phe7 changed into cysteine and coupled with the IANBD fluorophore (conjugate)
chain: MRGSHHHHHHGSVKVKFCWNGEEKEVDTSKIVWVKRAGKSVLFIYDDNGKNGYGDVTEKDAPKELLDMLARAEREKKLN
In the case of B3, the ΔΔG in test [3] was no more than 0.5 kcal/mol. In addition, the sr in test [3] (buffer C) amounted to 0.22.

B4: Thr46: H4S conjugate: residue Thr46 changed into cysteine and coupled with the IANBD fluorophore (conjugate)
chain: MRGSHHHHHHGSVKVKFFWNGEEKEVDTSKIVWVKRAGKSVLFIYDDNGKNGYGDVCEKDAPKELLDMLARAEREKKLN
With B4, in test [3], the ΔΔG is no more than 0.5 kcal/mol. Besides, the sr in test [3] (buffer C) was 0.27.

B5: Ile33: H4S conjugate: residue Ile33 changed into cysteine and coupled with the IANBD fluorophore (conjugate)
chain: MRGSHHHHHHGSVKVKFFWNGEEKEVDTSKIVWVKRAGKSVLFCYDDNGKNGYGDVTEKDAPKELLDMLARAEREKKLN
B5: the ΔΔG in test [3] is no less than 1.5 kcal/mol. In addition, in test [3] (fluorescence titration with HEL, 0.3 µM conjugate, buffer C, 25 °C, value ± SE of fitting), the Kd result is given as “nM”. In addition, the “ΔF∞/F0” value in test [3] (setting [4]) was “nm”. The sr entry in test [3] (buffer C) is “nm”.

B6: Asn40: H4S conjugate: residue Asn40 changed into cysteine and coupled with the IANBD fluorophore (conjugate)
chain: MRGSHHHHHHGSVKVKFFWNGEEKEVDTSKIVWVKRAGKSVLFIYDDNGKCGYGDVTEKDAPKELLDMLARAEREKKLN
As to B6, the ΔΔG in test [3] is no less than 1.5 kcal/mol. Further, in test [3] (buffer C), the sr is on record as 0.07.

B7: Trp8: H4S conjugate: residue Trp8 changed into cysteine and coupled with IANBD (SEQ ID NO: 59) (conjugate)
chain: MRGSHHHHHHGSVKVKFFCNGEEKEVDTSKIVWVKRAGKSVLFIYDDNGKNGYGDVTEKDAPKELLDMLARAEREKKLN
modifications: IANBD fluorophore on Cys8
As for B7, the sr in test [3] (buffer C) was found to be 0.90.

B8: Lys39: H4S conjugate: residue Lys39 changed into cysteine and coupled with IANBD (SEQ ID NO: 63) (conjugate)
chain: MRGSHHHHHHGSVKVKFFWNGEEKEVDTSKIVWVKRAGKSVLFIYDDNGCNGYGDVTEKDAPKELLDMLARAEREKKLN
modifications: IANBD fluorophore on Cys39
B8: the sr in test [3] (buffer C) was 1.16.

B9: Asp44: H4S conjugate: residue Asp44 changed into cysteine and coupled with the IANBD fluorophore (conjugate)
chain: MRGSHHHHHHGSVKVKFFWNGEEKEVDTSKIVWVKRAGKSVLFIYDDNGKNGYGCVTEKDAPKELLDMLARAEREKKLN
Consider B9, for which the ΔΔG in test [3] is no less than 1.5 kcal/mol. For the same molecule, the sr in test [3] (buffer C) was determined as 0.49.

B10: Trp22: H4S conjugate: residue Trp22 changed into cysteine and coupled with the IANBD fluorophore (conjugate)
chain: MRGSHHHHHHGSVKVKFFWNGEEKEVDTSKIVCVKRAGKSVLFIYDDNGKNGYGDVTEKDAPKELLDMLARAEREKKLN
Consider B10, for which, in test [3], the ΔΔG is no less than 1.5 kcal/mol. Further, in test [3] (setting [4]), the “ΔF∞/F0” value was 0.3±0.1. Also, the sr in test [3] (buffer C) turned out to be 0.06.

B11: Val21: H4S conjugate: residue Val21 changed into cysteine and coupled with IANBD (SEQ ID NO: 60) (conjugate)
chain: MRGSHHHHHHGSVKVKFFWNGEEKEVDTSKICWVKRAGKSVLFIYDDNGKNGYGDVTEKDAPKELLDMLARAEREKKLN
modifications: IANBD fluorophore on Cys21
On to B11, for which the sr in test [3] (buffer C) is reported as 3.17.

B12: Lys28: H4S conjugate: residue Lys28 changed into cysteine and coupled with the IANBD fluorophore (conjugate)
chain: MRGSHHHHHHGSVKVKFFWNGEEKEVDTSKIVWVKRAGCSVLFIYDDNGKNGYGDVTEKDAPKELLDMLARAEREKKLN
For the molecule B12, in test [3], the ΔΔG is no more than 0.5 kcal/mol. Moreover, the sr in test [3] (buffer C) is recorded as 0.24.

B13: Asn9: H4S conjugate: residue Asn9 changed into cysteine and coupled with the IANBD fluorophore (conjugate)
chain: MRGSHHHHHHGSVKVKFFWCGEEKEVDTSKIVWVKRAGKSVLFIYDDNGKNGYGDVTEKDAPKELLDMLARAEREKKLN
With B13, the ΔΔG in test [3] is no more than 0.5 kcal/mol.

B14: Tyr42: H4S conjugate: residue Tyr42 changed into cysteine and coupled with the IANBD fluorophore (conjugate)
chain: MRGSHHHHHHGSVKVKFFWNGEEKEVDTSKIVWVKRAGKSVLFIYDDNGKNGCGDVTEKDAPKELLDMLARAEREKKLN
With B14, the ΔΔG in test [3] was no less than 1.5 kcal/mol. For the same molecule, in test [3] (buffer C), the sr is on record as 0.72.

B15: Ser29: H4S conjugate: residue Ser29 changed into cysteine and coupled with the IANBD fluorophore (conjugate)
chain: MRGSHHHHHHGSVKVKFFWNGEEKEVDTSKIVWVKRAGKCVLFIYDDNGKNGYGDVTEKDAPKELLDMLARAEREKKLN
Turning to B15, in test [3], the ΔΔG is no more than 0.5 kcal/mol.

B16: H4S conjugate, IANBD fluorophore coupled at position Asn40 (designed binder)
chain: MRGSHHHHHHGSVKVKFFWNGEEKEVDTSKIVWVKRAGKSVLFIYDDNGKCGYGDVTEKDAPKELLDMLARAEREKKLN
modifications: Cys at position 40 (H4S numbering) coupled to IANBD ester (ANBD)
For the molecule B16, in the test with hen egg-white lysozyme [1], the equilibrium dissociation constant (Kd) was found to be 2000 nM and the “ΔF∞/F0 (maximal relative variation of fluorescence on HEL binding)” value amounted to 0.57. Moreover, the “ΔΔG (conjugate against H4S(wt))” value with hen egg-white lysozyme [2] was no less than 1.5 kcal/mol.

B17: H4S conjugate, IANBD fluorophore coupled at position Asp44 (designed binder)
chain: MRGSHHHHHHGSVKVKFFWNGEEKEVDTSKIVWVKRAGKSVLFIYDDNGKNGYGCVTEKDAPKELLDMLARAEREKKLN
modifications: Cys at position 44 (H4S numbering) coupled to IANBD ester (ANBD)
As for B17, in the test with hen egg-white lysozyme [1], the affinity, expressed as Kd, was 623 nM and the “ΔF∞/F0 (maximal relative variation of fluorescence on HEL binding)” value was 1.5. Further, the “ΔΔG (conjugate against H4S(wt))” value with hen egg-white lysozyme [2] was no less than 1.5 kcal/mol.

What is called Kd is the free concentration of one partner at which half of the binding sites on the other are occupied at equilibrium, for simple one-to-one binding.
